Target: CD3 on T cells (Jurkat T cells; PBMC-T cells)
Assay: flow cytometry on Jurkat T cells; protein purified on CH1 resin

CD3 on T cells (Jurkat T cells; PBMC-T cells), sequence (P07766 23-207): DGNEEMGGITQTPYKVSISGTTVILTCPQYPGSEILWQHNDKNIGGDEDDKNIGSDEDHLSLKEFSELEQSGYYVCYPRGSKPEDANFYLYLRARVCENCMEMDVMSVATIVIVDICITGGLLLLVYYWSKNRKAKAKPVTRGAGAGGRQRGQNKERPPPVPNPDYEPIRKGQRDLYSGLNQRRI

B1: IgFD-36(anti-CD3) (antibody, human IgG1, kappa, V domains shown)
VH: EVQLVESGGGLVQPGGSLRLSCAASGFTFNTYAMNWVRQAPGKGLEWVARIRSKYNNYATYYADSVKDRFTISRDDSKNTLYLQMNSLRAEDTAVYYCVRHGNFGNSYVSWFAYWGQGTLVTVSS
VL: QAVVTQEPSLTVSPGGTVTLTCRSSTGAVTTSNYANWVQQKPDHLFRGLIGGTNKRAPGTPARFSGSLLGDKAALTISGAQPEDEAEYYCALWYSNLWVFGGGTKLTVLK
  Kd: 6.12 nM

Source: patent US20220089722A1
